From patent publication US10456465B2, “Compositions, kits, and methods for the diagnosis prognosis, monitoring, treatment and modulation of post-transplant lymphoproliferative disorders and hypoxia associated angiogenesis disorders using galectin-1” (Dana-Farber Cancer Institute, Inc., priority 2009, dated 2019)

Legend:
human galectin-1 (Gal1) = molecular target: T1, human galectin-1 (Gal1) (human, UniProt P09382 2-135); test: immunoblot of L428 cell lysate
T1 construct: Used as recombinant protein (rGal1); also called hGal1; rGal1

Gal8 = molecular target: T2, Gal8 (Homo sapiens, UniProt O00214); test: Binding of 488-Gal8 to HUVEC; settings: 488-Gal8 20 μg/ml, mAb 0.5 μM
T2 construct: made in house
T2 sequence (O00214 1-317): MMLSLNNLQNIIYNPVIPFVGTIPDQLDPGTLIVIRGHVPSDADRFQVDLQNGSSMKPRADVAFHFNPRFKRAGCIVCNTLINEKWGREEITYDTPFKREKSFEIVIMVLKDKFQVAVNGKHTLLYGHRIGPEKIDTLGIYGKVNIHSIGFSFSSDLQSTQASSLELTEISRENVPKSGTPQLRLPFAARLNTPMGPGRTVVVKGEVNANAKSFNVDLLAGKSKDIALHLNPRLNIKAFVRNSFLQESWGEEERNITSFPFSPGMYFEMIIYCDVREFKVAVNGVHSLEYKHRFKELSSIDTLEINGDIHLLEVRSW
Procedure: For glycophenotyping, ECs were incubated with biotinylated L-PHA, LEL, SNA, MAL II, PNA and HPA (all from Vector). Recombinant Gal1 was purified as described in Ilarregui et al. (2009) Nat Immunol 10, 981-991. For binding assays, ECs were incubated for 1 h at 4° C. with dyLight 488-labeled galectins in the absence or presence of lactose, sucrose, anti-Gal1 or isotype control mAb or following transfection with GnT5, GCNT1 or scrambled siRNA. Cells were analyzed on a FACSAria (BD Biosciences). For segregation, ECs were treated with Gal1 for 1 h, fixed and incubated for 1 h with anti-human VEGFR2 antibody (55B11; Cell Signaling) as described in Ilarregui et al. (2009) Nat Immunol 10, 981-991. Cells were analyzed on a Nikon laser confocal microscope (Eclipse E800).
DyLight 488-conjugated Gal1 (488-Gal1) was obtained using DyLight labeling kit (Thermo Scientific). Inhibitors of Jak2-STAT3 (AG490; 5 μM), Jnk-SAP (SP600125; 20 μM), p38 (SB202190; 10 μM), HIF-1α (3 μM) and O-glycosylation (benzyl-α-Ga1NAc; 2 mM) were from Calbiochem. Inhibitors of Erk1/2 (U0126; 5 μM), PI(3)K-Akt (Ly294002; 2 μM) and NF-κB (BAY 11-7082; 1 μM), ROS (N-acetyl-cysteine; NAC), N-glycosylation (swainsonine; 3 μM), lactose or sucrose (30 mM) were from Sigma. PNGase F (25 U/μg protein) was from New England Biolabs. […]

KS tumors = test: KS xenograft in nude mice; format: in vivo
Procedure: HUVEC transfected or not with specific siRNA or pre-incubated with signaling pathway inhibitors were exposed to VEGF or Gal1 with or without lactose, sucrose, 8F4F8G7 mAb or control isotype (IgG1κ) or specific antibodies for VEGFR1 (AP-MAB0702; Abcam), VEGFR2 (AF357; R&D), VEGFR3 (AB89501; Abcam) or VEGF (MAB293; R&D). Cells were processed for proliferation, migration, invasion and tube formation assays. Tumor-associated blood vessels were identified by flow cytometry using Alexa Fluor 647-conjugated anti-CD34 antibody (RAM34; eBioscience).
Wild-type KS cells or shRNA clones (5×10^6 cells) were injected subcutaneously into 6- to 8-week old nude mice. Wild-type B16 cells or shRNA clones (2×10^5 cells) were injected into 6- to 8-week old B6 or B6/Rag^−/− mice and tumor development was monitored as described in Rubinstein et al. (2004) Cancer Cell 5, 241-251. Treatments with 8F4F8G7 mAb or control isotype (2.5, 7.5 or 15 mg/kg; i.p. injections every three days) were initiated when tumors reached 100 mm^3. […] At 2 weeks after tumor challenge, lymph node cells (5×10^5 cells/well) were restimulated for 72 h with 1×10^4 irradiated (4,000 rads) B16 cells and were analyzed for proliferation and cytokine production. […] CFSE^+ cells or PerCP-labeled beads were analyzed after 24 h or 15 min respectively by flow cytometry in tumor parenchyma and spleen.

B16 tumors = test: Adoptive transfer of CFSE-labeled T cells or fluorescent beads into B16 tumor-bearing mice; format: in vivo, mouse
Procedure: Wild-type KS cells or shRNA clones (5×10^6 cells) were injected subcutaneously into 6- to 8-week old nude mice. Wild-type B16 cells or shRNA clones (2×10^5 cells) were injected into 6- to 8-week old B6 or B6/Rag^−/− mice and tumor development was monitored as described in Rubinstein et al. (2004) Cancer Cell 5, 241-251. Treatments with 8F4F8G7 mAb or control isotype (2.5, 7.5 or 15 mg/kg; i.p. injections every three days) were initiated when tumors reached 100 mm^3. Mice were sacrificed when tumors reached a volume greater than 2 cm^3. At 2 weeks after tumor challenge, lymph node cells (5×10^5 cells/well) were restimulated for 72 h with 1×10^4 irradiated (4,000 rads) B16 cells and were analyzed for proliferation and cytokine production. For adoptive transfer, splenic T cells (5×10^6) from tumor-bearing mice were labeled with CFSE (Molecular Probes) and injected through the tail vein into tumor-bearing recipient mice treated with 8F4F8G7 or control mAb. In related studies, fluorescent beads (3 μm; BD Biosciences), rather than splenic T cells, were injected into tumor-bearing animals treated with 8F4F8G7 or control antibody. CFSE^+ cells or PerCP-labeled beads were analyzed after 24 h or 15 min respectively by flow cytometry in tumor parenchyma and spleen.

T1 sequence (P09382 2-135 limits assumed): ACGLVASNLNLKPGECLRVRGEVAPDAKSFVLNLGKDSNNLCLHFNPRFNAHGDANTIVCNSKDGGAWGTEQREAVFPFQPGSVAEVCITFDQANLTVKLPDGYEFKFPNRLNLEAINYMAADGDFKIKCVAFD

B1: anti-Gal1 monoclonal antibody 8F4F8G7 (antibody, V domains shown)
VH: EVQLQQSVAEFVRPGASVRLSCTASGFNIKNTYIHWVRQRPEQGLEWIGKIDPANGNTKYVPEFQGKATMTADTSSNTVYLHLSSLTSEDTAIYYCVDGYYGWYFAVWGTGTTVTVSS
VL: QAVVTQESALTTSPGETVTLTCRSSTGAVTTSNYANWVQEKPDHLFTGLIGATNNRAPGVPARFSGSLIGDKAVLTITGAQTEDEAIYFCALWYRNHFIFGSGTKVTVL
notes: Murine hybridoma mAb (deposit PTA-10535), lambda light chain; also called 14-19 8F4-F8-G7; clone 8F4.8F.67
binding result (human galectin-1 (Gal1)): binds
effect on binding of Gal8 to the EC surface (Gal8): did not interfere
tumor microvasculature (KS tumors; CD34+ ECs and tumor hemoglobin content, vs isotype control): significant reduction
tumor growth (KS tumors; established KS tumors, 2.5, 7.5 or 15 mg/kg i.p. every three days): dose-dependent delay
T cells reaching tumor parenchyma (increase) (B16 tumors; CFSE-labeled T cells, vs control isotype): 3 fold
number of CFSE+ T cells in spleens (B16 tumors; recipient mice): no differences
access of fluorescently-labeled beads to the tumor parenchyma (B16 tumors; vs isotype-treated mice, 15 min): increased access
